# Measured values reported in the supplement of paper PMC10724198.
# ± gives the standard deviation of the averaged measurements.
# Key:
# Saccharomyces cerevisiae [1] = assay: protein stability index of tFT-peptide fusion (C-terminal peptide) (PSI (0-1 scale)); higher = more stable (slower turnover); settings: genetic background: wild type; temperature: 30 C
# Saccharomyces cerevisiae [2] = assay: as above
# Procedure: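 MPS profiling in S. cerevisiae of the tFT-X12 degron library: putative degron peptides plus stable controls, 12 aa, fused to the C-terminus of a sfGFP-mCherry timer. Cells are FACS-sorted into 8 mCherry/sfGFP bins and deep-sequenced. PSI runs from 0 (unstable) to 1 (stable). Backgrounds are wild type, das1Δ and doa10Δ at 30 °C, and wild type, das1Δ, cdc34-1 and cdc53-1 at 37 °C; 2-3 technical replicates each.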
# [3] = genetic background: cdc34-1, temperature: 37 C
# [4] = genetic background: cdc53-1, temperature: 37 C
# [5] = genetic background: das1 deletion, temperature: 30 C
# [6] = genetic background: das1 deletion, temperature: 37 C
# [7] = genetic background: doa10 deletion, temperature: 30 C
# [8] = genetic background: wild type, temperature: 30 C
# [9] = genetic background: wild type, temperature: 37 C
# 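Note: PSI is a weighted mean of sequencing reads over stability bins, variants kept only with over 10 reads, mCherry proximal and sfGFP distal, peptide attached via GGGS linker.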
Sequence,protein stability index (Saccharomyces cerevisiae [1]),protein stability index (Saccharomyces cerevisiae [2]; [3]),protein stability index (Saccharomyces cerevisiae [2]; [4]),protein stability index (Saccharomyces cerevisiae [2]; [5]),protein stability index (Saccharomyces cerevisiae [2]; [6]),protein stability index (Saccharomyces cerevisiae [2]; [7]),protein stability index (Saccharomyces cerevisiae [2]; [8]),protein stability index (Saccharomyces cerevisiae [2]; [9])
IKPSVHILIRTL,0.21 ± 0.0069,0.544 ± 0.019,0.57 ± 0.017,0.446 ± 0.046,0.571 ± 0.02,0.118 ± 0.022,0.14 ± 0.0072,0.222 ± 0.0071
ILGDPHLALIFP,0.703 ± 0.022,0.689 ± 0.02,0.757 ± 0.012,0.657 ± 0.026,0.749 ± 0.018,0.652 ± 0.028,0.666 ± 0.021,0.7324 ± 0.0016
ILVYFQAHAIKI,0.129 ± 0.0092,0.1592 ± 0.00018,0.189 ± 0.015,0.0937 ± 0.022,0.199 ± 0.0036,0.0645 ± 0.012,0.0874 ± 0.027,0.202 ± 0.01
ISARPFLYSFRP,0.0266 ± 0.038,0.683 ± 0.01,0.7515 ± 0.0074,0.643 ± 0.034,0.7373 ± 0.0025,0.644 ± 0.027,0.644 ± 0.041,0.71009 ± 0.00017
ISFSLALSVSFS,0.49 ± 0.0052,0.5219 ± 0.0035,0.532 ± 0.014,0.502 ± 0.015,0.478 ± 0.029,0.567 ± 0.05,0.528 ± 0.011,0.469 ± 0.013
ISLSCRSFFCLS,0.507 ± 0.027,0.61 ± 0.033,0.68 ± 0.011,0.574 ± 0.018,0.6691 ± 0.0065,0.446 ± 0.015,0.462 ± 0.019,0.5854 ± 0.0049
ISLVLVVIEVQR,0.209 ± 0.027,0.0774 ± 0.045,0.285 ± 0.042,0.166 ± 0.042,0.316 ± 0.017,0.135 ± 0.0075,0.143 ± 0.024,0.249 ± 0.03
ISVFLFAFFFIP,0.356 ± 0.031,0.447 ± 0.0098,0.553 ± 0.024,0.395 ± 0.03,0.531 ± 0.013,0.275 ± 0.016,0.306 ± 0.012,0.425 ± 0.01
ISVQKRRAIEII,0.451 ± 0.013,0.586 ± 0.008,0.6379 ± 0.0021,0.496 ± 0.03,0.626 ± 0.0078,0.266 ± 0.008,0.305 ± 0.018,0.492 ± 0.03
IVCFCFFLMFSL,0.378 ± 0.0077,0.319 ± 0.063,0.34 ± 0.011,0.321 ± 0.021,0.417 ± 0.014,0.4222 ± 0.0033,0.317 ± 0.017,0.3766 ± 0.0011
IVVLCHVFLDLG,0.126 ± 0.03,0.048 ± 0.01,0.128 ± 0.033,0.125 ± 0.048,0.222 ± 0.019,0.074 ± 0.026,0.0933 ± 0.021,0.2008 ± 0.00035
IWCQVGAFLVVF,0.307 ± 0.027,0.218 ± 0.0075,0.257 ± 0.0071,0.209 ± 0.024,0.352 ± 0.0047,0.18 ± 0.01,0.198 ± 0.02,0.337 ± 0.0084
IYVLLDVNYHLP,0.468 ± 0.042,0.509 ± 0.024,0.527 ± 0.0074,0.379 ± 0.024,0.543 ± 0.014,0.3542 ± 0.0026,0.361 ± 0.026,0.5681 ± 0.0038
IYVSVMLLRYRF,0.465 ± 0.043,0.41 ± 0.042,0.428 ± 0.018,0.342 ± 0.035,0.493 ± 0.0097,0.3455 ± 0.00077,0.331 ± 0.042,0.481 ± 0.03
KCKIWFREVSMN,0.32 ± 0.066,0.658 ± 0.018,0.7475 ± 0.007,0.647 ± 0.015,0.729 ± 0.06,0.1748 ± 0.0015,0.216 ± 0.019,0.414 ± 0.027
KGSFDLPTFSLF,0.504 ± 0.095,0.726 ± 0.026,0.776 ± 0.018,0.644 ± 0.026,0.769 ± 0.011,0.613 ± 0.015,0.64 ± 0.031,0.7445 ± 0.0073
KICAVRVIMDWC,0.4769 ± 0.0044,0.459 ± 0.059,0.542 ± 0.012,0.383 ± 0.044,0.566 ± 0.017,0.351 ± 0.0053,0.379 ± 0.018,0.564 ± 0.014
KIKVFHEMVLMC,0.18 ± 0.0043,0.37 ± 0.059,0.587 ± 0.0097,0.446 ± 0.031,0.628 ± 0.017,0.114 ± 0.0016,0.139 ± 0.013,0.135 ± 0.043
KKNKIYKERKNI,0.434 ± 0.046,0.702 ± 0.17,–,0.6248 ± 0.0028,0.7245 ± 0.0029,0.203 ± 0.02,0.289 ± 0.13,0.462 ± 0.064
KKNTQKKIKLSC,0.358 ± 0.011,0.629 ± 0.0068,0.733 ± 0.023,0.627 ± 0.035,0.728 ± 0.045,0.15 ± 0.032,0.171 ± 0.011,0.281 ± 0.021
KKRYSEIFKKNG,0.408 ± 0.05,0.694 ± 0.057,0.728 ± 0.025,0.637 ± 0.016,0.769 ± 0.037,0.211 ± 0.033,0.254 ± 0.023,0.56 ± 0.039
KLLLTCTFLVFP,0.435 ± 0.0062,0.448 ± 0.022,0.545 ± 0.024,0.37 ± 0.032,0.555 ± 0.011,0.3361 ± 0.003,0.369 ± 0.02,0.523 ± 0.018
KNKRQKNTIRKQ,0.463 ± 0.016,0.669 ± 0.017,0.682 ± 0.056,0.654 ± 0.034,0.757 ± 0.089,0.2745 ± 0.00035,0.346 ± 0.025,0.573 ± 0.0086
KQNKKHKKLKSN,0.182 ± 0.091,0.543 ± 0.051,0.718 ± 0.051,0.66 ± 0.026,0.694 ± 0.021,0.111 ± 0.0086,0.0929 ± 0.018,0.182 ± 0.036
KRLRDFLVIMCS,0.196 ± 0.014,0.198 ± 0.024,0.2289 ± 0.0013,0.24 ± 0.03,0.358 ± 0.0079,0.112 ± 0.0067,0.118 ± 0.019,0.098 ± 0.02
KTLCFLCRTRNS,0.52 ± 0.033,0.671 ± 0.025,0.73 ± 0.011,0.668 ± 0.027,0.76 ± 0.013,0.387 ± 0.014,0.433 ± 0.023,0.658 ± 0.017
KVRVRTTCWRKL,0.255 ± 0.019,0.617 ± 0.039,0.686 ± 0.038,0.625 ± 0.015,0.7074 ± 0.0013,0.134 ± 0.0059,0.155 ± 0.014,0.347 ± 0.0065
KYHLAAQLLVLL,0.459 ± 0.037,0.602 ± 0.022,0.649 ± 0.015,0.531 ± 0.022,0.6431 ± 0.0046,0.401 ± 0.011,0.408 ± 0.0063,0.556 ± 0.0067
LAFAGRCGLYVC,0.362 ± 0.053,0.57 ± 0.064,0.679 ± 0.016,0.583 ± 0.026,0.693 ± 0.0075,0.289 ± 0.0035,0.291 ± 0.021,0.452 ± 0.0079
LAGLFICTLISC,0.254 ± 0.071,0.159 ± 0.0021,0.176 ± 0.0055,0.203 ± 0.023,0.2775 ± 0.0013,0.185 ± 0.012,0.191 ± 0.029,0.2449 ± 0.00042
